Measured values: paper PMC10207099, “Nitrogen Fixation and Hydrogen Evolution by Sterically Encumbered Mo-Nitrogenase” (JACS Au, 2023)

T1: NifK (ß subunit) of the MoFe protein (Azotobacter vinelandii, UniProt P07329 1-523)
T1 construct: Nitrogenase molybdenum-iron protein beta chain (NifK, ß subunit), Azotobacter vinelandii; The ß chain of m1 and m2, written alone; also called ß-subunit/NifK; source: A. vinelandii strain M1 (derivative of RS1), purified as part of the MoFe protein (HisTrap HP, Q-Sepharose)
T1 sequence: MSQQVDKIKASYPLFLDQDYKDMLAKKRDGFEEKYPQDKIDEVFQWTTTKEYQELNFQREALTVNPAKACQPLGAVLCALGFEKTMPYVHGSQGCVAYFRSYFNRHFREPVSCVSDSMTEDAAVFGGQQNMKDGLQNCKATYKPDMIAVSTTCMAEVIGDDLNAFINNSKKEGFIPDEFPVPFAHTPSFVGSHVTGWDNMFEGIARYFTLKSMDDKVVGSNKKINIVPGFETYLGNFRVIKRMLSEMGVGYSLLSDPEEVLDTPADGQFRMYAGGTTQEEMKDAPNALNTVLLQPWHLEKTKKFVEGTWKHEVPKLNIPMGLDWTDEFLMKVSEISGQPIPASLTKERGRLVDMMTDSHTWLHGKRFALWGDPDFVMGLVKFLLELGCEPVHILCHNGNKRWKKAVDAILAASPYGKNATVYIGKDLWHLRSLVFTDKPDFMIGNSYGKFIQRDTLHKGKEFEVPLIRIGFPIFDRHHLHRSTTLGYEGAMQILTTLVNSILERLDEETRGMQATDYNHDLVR

B1: NifD (α subunit) of the Strep-inhibited α-C45A/L158C MoFe protein (natural protein, Azotobacter vinelandii)
chain: GMSREEVESLIQEVLEVYPEKARKDRNKHLAVNDPAVTQSKKAIISNKKSQPGLMTIRGCAYAGSKGVVWGPIKDMIHISHGPVGCGQYSRAGRRNYYIGTTGVNAFVTMNFTSDFQEKDIVFGGDKKLAKLIDEVETLFPLNKGISVQSECPIGCIGDDIESVSKVKGAELSKTIVPVRCEGFRGVSQSLGHHIANDAVRDWVLGKRDEDTTFASTPYDVAIIGDYNIGGDAWSSRILLEEMGLRCVAQWSGDGSISEIELTPKVKLNLVHCYRSMNYISRHMEEKYGIPWMEYNFFGPTKTIESLRAIAAKFDESIQKKCEEVIAKYKPEWEAVVAKYRPRLEGKRVMLYIGGLRPRHVIGAYEDLGMEVVGTGYEFAHNDDYDRTMKEMGDSTLLYDDVTGYEFEEFVKRIKPDLIGSGIKEKFIFQKMGIPFREMHSWDYSGPYHGFDGFAIFARDMDMTLNNPCWKKLQAPWEASEGAEKVAASA
peptide: GGGWSHPQFEK
modifications: C158 joined by thiol-maleimide Michael addition to the peptide maleimide-GGGWSHPQFEK | N-terminal maleimide, joined to C158 of the α subunit
notes: Nitrogenase molybdenum-iron protein alpha chain (NifD, α subunit), Azotobacter vinelandii; The α chain of m2, written alone; in the sample only part of the α subunits carry the peptide; also called Strep-modified α subunit

Legend:
[1] = molecular target: Strep-inhibited α-C45A/L158C MoFe protein (Azotobacter vinelandii) (UniProt P07328); assay: SEC; analytical gel filtration of MoFe protein pre-treated with 5 molar equivalents of L127Δ Fe protein
[2] = molecular target: T1, NifK (ß subunit) of the MoFe protein; assay: native gel or EMSA; anoxic native-PAGE of the MoFe protein alone; details: both partners purified

| Molecule | percent of the broadened MoFe peak that is MoFe:Fe1 complex (multi-Gaussian peak analysis) [1] [%] | binding result [2] |
| --- | --- | --- |
| L127Δ Fe protein (non-ATP-hydrolyzing NifH2 mutant) (enzyme) | 68 |  |
| B1 |  | binds |
